In patent US20230102339A1 (Eli Lilly, published 2023):
Like-named read-outs stand apart in the source and are kept apart here.

Columns and labels:
[1] = molecular target: T1, human GIP receptor (hGIPR) (human, UniProt P48546 22-466); experiment: cell-based or functional assay
T1 sequence: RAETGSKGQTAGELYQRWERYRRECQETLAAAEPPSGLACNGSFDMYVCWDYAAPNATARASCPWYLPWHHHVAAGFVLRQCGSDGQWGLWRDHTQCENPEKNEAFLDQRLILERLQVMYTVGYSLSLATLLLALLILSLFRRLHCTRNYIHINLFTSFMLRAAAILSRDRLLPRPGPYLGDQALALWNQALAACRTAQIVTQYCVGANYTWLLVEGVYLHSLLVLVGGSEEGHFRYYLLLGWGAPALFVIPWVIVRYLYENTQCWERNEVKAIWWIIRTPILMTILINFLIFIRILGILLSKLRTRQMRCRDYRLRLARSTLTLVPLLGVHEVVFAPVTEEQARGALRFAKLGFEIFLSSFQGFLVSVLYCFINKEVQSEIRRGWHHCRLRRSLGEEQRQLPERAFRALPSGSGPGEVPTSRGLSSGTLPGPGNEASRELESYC

[2] = molecular target: T2, human GCG receptor (hGCGR) (human, UniProt P47871 26-477); experiment: cell-based or functional assay
T2 sequence (P47871 other isoform, or with tags, fused parts or gaps limits assumed): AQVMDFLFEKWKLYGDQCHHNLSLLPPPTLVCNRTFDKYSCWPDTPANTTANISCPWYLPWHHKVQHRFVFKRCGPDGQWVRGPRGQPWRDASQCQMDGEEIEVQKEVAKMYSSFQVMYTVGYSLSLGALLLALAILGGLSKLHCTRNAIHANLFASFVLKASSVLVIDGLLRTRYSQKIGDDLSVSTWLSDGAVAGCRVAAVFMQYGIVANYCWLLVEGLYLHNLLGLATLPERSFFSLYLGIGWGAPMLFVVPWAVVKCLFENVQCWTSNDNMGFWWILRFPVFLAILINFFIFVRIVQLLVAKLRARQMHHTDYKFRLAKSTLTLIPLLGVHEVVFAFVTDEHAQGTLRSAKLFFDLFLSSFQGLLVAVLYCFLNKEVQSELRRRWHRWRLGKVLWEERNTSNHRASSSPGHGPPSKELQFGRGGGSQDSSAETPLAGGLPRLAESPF

[3] = molecular target: T1, human GIP receptor (hGIPR); experiment: cell-based or functional assay; remark: listed apart in the source
[4] = molecular target: T3, human GLP-1 receptor (hGLP-1R) (human, UniProt P43220 24-463); experiment: cell-based or functional assay
[5] = molecular target: T3, human GLP-1 receptor (hGLP-1R); experiment: cell-based or functional assay; remark: listed apart in the source
[6] = molecular target: T2, human GCG receptor (hGCGR); experiment: radioligand competition binding, SPA, membranes of HEK293 cells overexpressing hGCGR, with bacitracin
Procedure: (§1) The assays are performed in the presence of bacitracin as a non-specific blocking agent to prevent acylated moieties of test analogs from binding to protein components used in standard assay buffers (e.g., albumin).
(§2) Competition curves are plotted as the percent specific inhibition (y-axis) versus log concentration of compound (x-axis) and analyzed using a four-parameter nonlinear regression fit with variable slope (ABase or Genedata).

[7] = molecular target: T1, human GIP receptor (hGIPR); experiment: radioligand competition binding, SPA, membranes of HEK293 cells overexpressing hGIPR, with bacitracin
Procedure: as §1, §2

[8] = molecular target: T3, human GLP-1 receptor (hGLP-1R); experiment: radioligand competition binding, SPA, membranes of HEK293 cells overexpressing hGLP-1R, with bacitracin
Procedure: as §1, §2

[9] = molecular target: T2, human GCG receptor (hGCGR); experiment: cell-based or functional assay; remark: listed apart in the source
[10] = molecular target: T1, human GIP receptor (hGIPR); experiment: cell-based or functional assay; remark: listed apart in the source

human GIP(1-42)NH2 (from UniProt P09681 52-93) (ligand)
cAMP EC50 (0.1% bovine casein) [1]: 1.08 nM
cAMP EC50 (0.1% bovine casein, 1.0% human serum albumin) [1]: 0.756 nM
cAMP Emax (0.1% bovine casein) [1]: 98%

B1: Example 1 (Incretin Analog 1) (peptide)
peptide: YXQGTXTSDYSILLDXKAQXAFIEYLLEGGPSSGEPPPE
modifications: Aib at 2; αMeF(2F) at 6; Orn (O) at 16; K17 conjugated on the epsilon-amino group with 2-[2-(2-amino-ethoxy)-ethoxy]-acetyl-γE-CO-(CH2)18-CO2H; 4Pal at 20; C-terminal amide (E39-NH2)
notes: Synthetic acylated 39-residue peptide, obtained as TFA salt
cAMP EC50 (0.1% bovine casein) [2]: 1.2 nM
cAMP Emax (0.1% bovine casein) [2]: 101%
cAMP EC50 (0.1% bovine casein) [3]: 0.0513 nM
cAMP Emax (0.1% bovine casein) [3]: 102%
cAMP EC50 (0.1% bovine casein) [4]: 0.345 nM
cAMP Emax (0.1% bovine casein) [4]: 106%
cAMP EC50 (0.1% bovine casein, 1.0% human serum albumin) [5]: 180 nM
cAMP Emax (0.1% bovine casein, 1.0% human serum albumin) [5]: 102%
Ki [6]: 0.629 nM
Ki [7]: 0.111 nM
Ki [8]: 4.53 nM

B2: Example 2 (Incretin Analog 2) (peptide)
peptide: YXQGTXTSDYSIXLDXKAQXAFIEXLLEGGPSSGEPPPS
modifications: Aib at 2; αMeF(2F) at 6; αMeL at 13; Orn (O) at 16; K17 conjugated on the epsilon-amino group with 2-[2-(2-amino-ethoxy)-ethoxy]-acetyl-γE-CO-(CH2)18-CO2H; Iva at 20; αMeY at 25; C-terminal amide (S39-NH2)
notes: Synthetic acylated 39-residue peptide
cAMP EC50 (0.1% bovine casein) [3]: 0.0256 nM
cAMP Emax (0.1% bovine casein) [3]: 101%
cAMP EC50 (0.1% bovine casein, 1.0% human serum albumin) [9]: 537 nM
cAMP Emax (0.1% bovine casein, 1.0% human serum albumin) [9]: 112%
cAMP EC50 (0.1% bovine casein, 1.0% human serum albumin) [10]: 2.91 nM
cAMP Emax (0.1% bovine casein, 1.0% human serum albumin) [10]: 99%
cAMP EC50 (0.1% bovine casein, 1.0% human serum albumin) [5]: 119 nM
cAMP Emax (0.1% bovine casein, 1.0% human serum albumin) [5]: 116%
Ki [6]: 0.95 nM
Ki [7]: 0.158 nM
Ki [8]: 2.54 nM

B3: Example 3 (Incretin Analog 3) (peptide)
peptide: YXQGTXTSDXSIXLDXKAQXXFIXXLLEGGPSSGEPPPS
modifications: Aib at 2; αMeF(2F) at 6; 4Pal at 10; αMeL at 13; Orn (O) at 16; K17 conjugated on the epsilon-amino group with 2-[2-(2-amino-ethoxy)-ethoxy]-acetyl-γE-CO-(CH2)18-CO2H; αMeL at 20; Aib at 21; D-glutamic acid (e) at 24; αMeY at 25; C-terminal amide (S39-NH2)
notes: as for B2
cAMP EC50 (0.1% bovine casein) [2]: 2.49 nM
cAMP Emax (0.1% bovine casein) [2]: 99%
cAMP EC50 (0.1% bovine casein) [3]: 0.0306 nM
cAMP Emax (0.1% bovine casein) [3]: 103%
cAMP EC50 (0.1% bovine casein) [4]: 0.451 nM
cAMP Emax (0.1% bovine casein) [4]: 107%
cAMP EC50 (0.1% bovine casein, 1.0% human serum albumin) [9]: 480 nM
cAMP Emax (0.1% bovine casein, 1.0% human serum albumin) [9]: 97%
cAMP EC50 (0.1% bovine casein, 1.0% human serum albumin) [10]: 3.72 nM
cAMP Emax (0.1% bovine casein, 1.0% human serum albumin) [10]: 105%
cAMP EC50 (0.1% bovine casein, 1.0% human serum albumin) [5]: 114 nM
cAMP Emax (0.1% bovine casein, 1.0% human serum albumin) [5]: 111%
Ki [6]: 1.73 nM
Ki [7]: 0.114 nM
Ki [8]: 3.63 nM
